Target: human IGF-1R (human, UniProt P08069)
Assay: BLI

B1: PHP1003-3 (designed binder)
chain 1: QVQLQQSGPGLVKPSQTLSLTCTVSGWSISGGWLWNWIRQPPGKGLQWIGWISWDGTNNWKPSLKDRVTISVDTSKNQFSLKLSSVTAADTAVWWCARWGRVFFDWWGQGTLVTVSS
chain 2: DIVMTQSPLSLPVTPGQPASISCRSSQSIVHSNGNTWLQWWLQKPGQSPQLLIWKVSNRLWGVPDRFSGSGSGTDFTLKISRVQAQDVGVWWCFQGSHVPWTFGQGTKVQIK
With B1 the Kd was 1.85 nM.

From patent publication US20260347484 (published 2026)
